Test results taken from patent publication US20250255905A1 (University of Texas, published 2025).

Target: T1, recombinantly produced human BCMA (human, UniProt Q02223 1-54, limits assumed)
T1 construct: also called B-cell maturation antigen; TNFRSF17
T1 sequence (looked up): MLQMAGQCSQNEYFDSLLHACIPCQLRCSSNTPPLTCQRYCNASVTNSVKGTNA
Test: flow cytometry; CAR-transduced cord blood NK cells stained with recombinantly produced human BCMA to detect the CAR on the surface
Procedure: Following the incubation, the cells were transferred to a v-bottom 96-well plate for cell staining. The cells, after pelleted by centrifugation and washed with flow buffer, were stained in 1:10 Fc block with fluorescently conjugated mouse anti-human CD3, mouse anti-human CD56, mouse anti-human NKG2D, and recombinantly produced human BCMA for 30 minutes on ice in the dark. The stained cells were washed, resuspended in Sytox Viability Dye and recorded on an MACSquant flow cytometer. Data were exported and analyzed using FlowJo v10.6.2. Live CD3-CD56⁺BCMA⁺ […] excluding the viability dye were quantified.

B1: BCMA-DAP10 CAR (other)
chain: QITLRESGGDVVQPGRSLRLSCAASGFTFSSYAIHWVRQAPGKGLEWVAVTWHDGSNKYYAESVMGRFTISRDNSKNTLYLHMNSLRAEDTGVYYCARAKFGEPQYFQHWGQGTLVTVSSGGGGSGGGGSGGGGSDIVMTQSPSFLSASVGDRVTITCRASQGINNYLAWYQQKPGIAPKLLIYAASTLQSGVPSRFGGSGSGTEFTLTISSLQPEDFATYYCQQLKSYPFTFGPGTKVEIKRAAAIEVMYPPPYLDNEKSNGTIIHVKGKHLCPSPLFPGPSKPKDPKFWVLVVVGGVLACYSLLVTVAFIIFWVLCARPRRSPAQEDGKVYINMPGRGRVKFSRSADAPAYQQGQNQLYNELNLGRREEYDVLDKRRGRDPEMGGKPRRKNPQEGLYNELQKDKMAEAYSEIGMKGERRRGKGHDGLYQGLSTATKDTYDALHMQALPPR
notes: It leaves out the signal peptide, E2A and IL-15; E2A residues left at the C-terminus after cleavage are not described; also called BCMA CAR; BCMA targeting CAR
- binding result: binds
